Results: patent US20220017622A1 (Pfizer, published 2022)
Changes are numbered by the printed parent chain. Names and notes keep the numbering of the source. Blank lines part the entries; values can stand above or below the binder they belong to.

Legend:
[1] = biological target: T1, human CD3 (delta/epsilon heterodimer) (human, UniProt P07766 23-126; P04234 22-105); assay: SPR 37 C; CD3 delta/epsilon on anti-His chip, bispecific (transient expi293) analyte
T1 construct: captured on an anti-His chip, so it carries a His tag; also called huCD3
T1 sequence (P07766 23-126, stated change not applied, chain 1 of 2): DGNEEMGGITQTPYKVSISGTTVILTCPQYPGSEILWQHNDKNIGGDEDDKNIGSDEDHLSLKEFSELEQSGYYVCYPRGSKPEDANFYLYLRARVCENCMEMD
T1 sequence (P04234 22-105, stated change not applied, chain 2 of 2): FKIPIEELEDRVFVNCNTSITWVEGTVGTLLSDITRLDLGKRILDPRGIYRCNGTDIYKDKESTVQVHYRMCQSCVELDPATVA

[2] = biological target: T2, cyno CD3 (delta/epsilon heterodimer) (cyno, UniProt Q95LI5 22-117; Q95LI8 22-105); assay: as above
T2 construct: also called cyCD3
T2 sequence (Q95LI5 22-117, stated change not applied, chain 1 of 2): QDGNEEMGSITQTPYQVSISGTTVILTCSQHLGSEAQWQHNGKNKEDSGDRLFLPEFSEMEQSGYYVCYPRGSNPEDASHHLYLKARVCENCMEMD
T2 sequence (Q95LI8 22-105, stated change not applied, chain 2 of 2): as the sequence (P04234 22-105, stated change not applied, chain 2 of 2) above, with I5V, N15K, I20V, S32T, D33N, I34N, T64A, S74N, V83L counted along it

[3] = biological target: T1, human CD3 (delta/epsilon heterodimer); assay: SPR 37 C; CD3 delta/epsilon on anti-His chip, bispecific analyte
[4] = biological target: T2, cyno CD3 (delta/epsilon heterodimer); assay: as above
[5] = biological target: T1, human CD3 (delta/epsilon heterodimer); assay: SPR 37 C; CD3 delta/epsilon on anti-His chip, bispecific (stable CHO) analyte
[6] = biological target: T2, cyno CD3 (delta/epsilon heterodimer); assay: as above
[7] = biological target: T3, cynomolgus CD3 on cells from cynomolgus PBMCs (cynomolgus, UniProt Q95LI5 22-198; Q95LI8 22-171); assay: flow cytometry on cyno PBMC, 37 C
T3 construct: whole, on cells; also called Cyno PBMC
T3 sequence (Q95LI5 22-198, chain 1 of 2): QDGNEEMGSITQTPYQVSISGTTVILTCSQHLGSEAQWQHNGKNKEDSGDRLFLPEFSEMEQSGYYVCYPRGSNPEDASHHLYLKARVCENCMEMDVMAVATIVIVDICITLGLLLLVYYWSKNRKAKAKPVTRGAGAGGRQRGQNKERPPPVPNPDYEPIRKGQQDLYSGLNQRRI
T3 sequence (Q95LI8 22-171, chain 2 of 2): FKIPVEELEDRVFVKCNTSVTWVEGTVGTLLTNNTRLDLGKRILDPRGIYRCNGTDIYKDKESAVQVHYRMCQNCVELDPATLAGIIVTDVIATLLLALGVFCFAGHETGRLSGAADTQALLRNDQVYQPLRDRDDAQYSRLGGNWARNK

[8] = biological target: T4, human CD3 on primary human T cells (human, UniProt P07766 23-207; P04234 22-171); assay: flow cytometry on primary human T cells, 37 C
T4 construct: whole, on cells; On cells the whole CD3/TCR complex is present
T4 sequence (P07766 23-207, chain 1 of 2): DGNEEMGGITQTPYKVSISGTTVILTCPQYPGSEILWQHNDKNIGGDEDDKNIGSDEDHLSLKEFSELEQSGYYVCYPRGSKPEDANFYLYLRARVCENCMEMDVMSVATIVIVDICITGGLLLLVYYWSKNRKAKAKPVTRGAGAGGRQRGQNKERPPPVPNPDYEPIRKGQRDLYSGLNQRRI
T4 sequence (P04234 22-171, chain 2 of 2): as the sequence (Q95LI8 22-171, chain 2 of 2) above, with V5I, K15N, V20I, T32S, N33D, N34I, A64T, N74S, L83V, R141H counted along it

[9] = biological target: T5, human B7-H4 on cells (human, UniProt Q7Z7D3 25-282); assay: cell-based or functional assay
T5 sequence (looked up): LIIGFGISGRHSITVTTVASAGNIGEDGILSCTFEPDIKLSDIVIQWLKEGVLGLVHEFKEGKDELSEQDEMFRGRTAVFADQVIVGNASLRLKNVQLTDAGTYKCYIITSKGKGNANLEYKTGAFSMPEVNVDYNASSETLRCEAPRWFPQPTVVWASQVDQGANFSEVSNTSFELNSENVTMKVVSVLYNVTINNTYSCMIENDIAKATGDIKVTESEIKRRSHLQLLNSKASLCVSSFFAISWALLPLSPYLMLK

[10] = biological target: T1, human CD3 (delta/epsilon heterodimer); assay: SPR 37 C; CD3 delta/epsilon on anti-His chip, bispecific (IgG1 scaffold) analyte
[11] = biological target: T6, human B7-H4 extracellular domain (human, UniProt Q7Z7D3 29-258); assay: SPR 37 C; bispecific (IgG1 scaffold) on anti-hFc chip, ECD analyte
T6 construct: Soluble ECD used as SPR analyte; also called huB7-H4 ECD; huB7-H4
T6 sequence: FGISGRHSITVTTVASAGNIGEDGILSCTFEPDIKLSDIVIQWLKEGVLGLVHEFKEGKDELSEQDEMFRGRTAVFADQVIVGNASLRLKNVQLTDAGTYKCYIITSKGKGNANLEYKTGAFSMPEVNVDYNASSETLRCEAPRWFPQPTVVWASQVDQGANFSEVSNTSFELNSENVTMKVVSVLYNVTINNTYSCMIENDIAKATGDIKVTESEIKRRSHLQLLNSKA

[12] = biological target: T7, human B7-H4 extracellular domain (human, UniProt Q7Z7D3 29-258); assay: SPR Biacore 8K 25 C; mAb captured on anti-human Fc, huB7-H4 ECD analyte, 1:1 fit;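 further: antibodies tested as IgG1, running buffer HBS-EP+ at pH 7.4, rate constants and affinity from a 1:1 Langmuir model fit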
T7 construct: For SPR it says only human B7-H4 ECD; also called Hu B7-H4 ECD; huB7-H4 ECD
T7 sequence: T6 sequence

[13] = biological target: T7, human B7-H4 extracellular domain; assay: competition ELISA on coated huB7-H4 ECD; competitor biotinylated 0052 (by series, not given); first of the four IC50 [nM] columns; competitor not given
[14] = biological target: T7, human B7-H4 extracellular domain; assay: competition ELISA on coated huB7-H4 ECD; competitor biotinylated 0052 (by series, not given); second value of the fourth IC50 column

Kd [1]: 62.5 nM
koff [1]: 0.0309 s⁻¹
kon [1]: 499000 M⁻¹ s⁻¹
Kd [2]: 70.8 nM
koff [2]: 0.0317 s⁻¹
kon [2]: 449000 M⁻¹ s⁻¹
Kd [3]: 63.5 nM
koff [3]: ~0.0337 s⁻¹
kon [3]: 531000 M⁻¹ s⁻¹
Kd [4]: 66.8 nM
koff [4]: ~0.0338 s⁻¹
kon [4]: 506000 M⁻¹ s⁻¹
Kd [5]: 49.8 nM
koff [5]: 0.0317 s⁻¹
kon [5]: 638000 M⁻¹ s⁻¹
Kd [6]: 58.8 nM
koff [6]: 0.0305 s⁻¹
kon [6]: 519000 M⁻¹ s⁻¹
EC50 [7]: 46 nM
EC50 [8]: 64 nM
B1: B7-H4xCD3 bispecific antibody 1167 (bispecific antibody)
heavy 1: EVQLLESGGGLVQPGGSLRLSCAASGFTFSSYAMSWVRQAPGKGLEWVSAISGGGGSTYYADSVKGRFTISRDNSKNTLYLQMNSLRAEDTAVYYCARDIQWYGESTLFDYWGQGTLVTVSSASTKGPSVFPLAPCSRSTSESTAALGCLVKDYFPEPVTVSWNSGALTSGVHTFPAVLQSSGLYSLSSVVTVPSSNFGTQTYTCNVDHKPSNTKVDKTVERKCEVECPECPAPPVAGPSVFLFPPKPKDTLMISRTPEVTCVVVAVSHEDPEVQFNWYVDGVEVHNAKTKPREEQFNSTFRVVSVLTVVHQDWLNGKEYKCKVSNKGLPSSIEKTISKTKGQPREPQVYTLPPSREEMTKNQVSLTCEVKGFYPSDIAVEWESNGQPENNYKTTPPMLDSDGSFFLYSKLTVDKSRWQQGNVFSCSVMHEALHNHYTQKSLSLSPGK
light 1: DIQMTQSPSSLSASVGDRVTITCRASQSTRSHLAWYQQKPGKAPKLLIYKASSLEGGVPSRFSGSGSGTDFTLTISSLQPEDFATYYCQQYGSYSRTFGQGTKVEIKRTVAAPSVFIFPPSDEQLKSGTASVVCLLNNFYPREAKVQWKVDNALQSGNSQESVTEQDSKDSTYSLSSTLTLSKADYEKHKVYACEVTHQGLSSPVTKSFNRGEC
heavy 2: EVQLVESGGGLVQPGGSLRLSCAASGFTFSDYYMTWVRQAPGKGLEWVAFIRNQARGYTSDHNPSVKGRFTISRDNAKNSLYLQMNSLRAEDTAVYYCARDRPSYYVLDYWGQGTTVTVSSASTKGPSVFPLAPCSRSTSESTAALGCLVKDYFPEPVTVSWNSGALTSGVHTFPAVLQSSGLYSLSSVVTVPSSNFGTQTYTCNVDHKPSNTKVDKTVERKCRVRCPRCPAPPVAGPSVFLFPPKPKDTLMISRTPEVTCVVVAVSHEDPEVQFNWYVDGVEVHNAKTKPREEQFNSTFRVVSVLTVVHQDWLNGKEYKCKVSNKGLPSSIEKTISKTKGQPREPQVYTLPPSREEMTKNQVSLTCLVKGFYPSDIAVEWESNGQPENNYKTTPPMLDSDGSFFLYSRLTVDKSRWQQGNVFSCSVMHEALHNHYTQKSLSLSPGK
light 2: DIQMTQSPSSLSASVGDRVTITCTSSQSLFNVRSQKNYLAWYQQKPGKAPKLLIYWASTRESGVPSRFSGSGSGTDFTLTISSLQPEDFATYYCKQSYDLFTFGGGTKVEIKRTVAAPSVFIFPPSDEQLKSGTASVVCLLNNFYPREAKVQWKVDNALQSGNSQESVTEQDSKDSTYSLSSTLTLSKADYEKHKVYACEVTHQGLSSPVTKSFNRGEC
notes: Chains 1-2: B7-H4 arm; chains 3-4: CD3 arm; Full-length chains; IgG2 dA D265A EEE/RRR

Kd [10]: 40 nM
koff [10]: 0.026 s⁻¹
kon [10]: 653000 M⁻¹ s⁻¹
Kd [11]: 22.3 nM
koff [11]: 0.00588 s⁻¹
kon [11]: 264000 M⁻¹ s⁻¹
B2: B7-H4xCD3 bispecific antibody 0089 (bispecific antibody, IgG1)
heavy 1: QVQLQQWGAGLLKPSETLSLTCAVYGGSFSGYYWNWIRQPPGKGLEWIGEINHSGSTKYNPSLKSRVTISGDTSKNQFSLKLNSVTAADTAVYYCVRGLYNWNVDSWGQGTLVTVSSASTKGPSVFPLAPSSKSTSGGTAALGCLVKDYFPEPVTVSWNSGALTSGVHTFPAVLQSSGLYSLSSVVTVPSSSLGTQTYICNVNHKPSNTKVDKKVEPKSCEKTHTCPECPAPEAAGAPSVFLFPPKPKDTLMISRTPEVTCVVVDVSHEDPEVKFNWYVDGVEVHNAKTKPREEQYNSTYRVVSVLTVLHQDWLNGKEYKCKVSNKALPAPIEKTISKAKGQPREPQVYTLPPSREEMTKNQVSLTCEVKGFYPSDIAVEWESNGQPENNYKTTPPVLDSDGSFFLYSKLTVDKSRWQQGNVFSCSVMHEALHNHYTQKSLSLSPG
light 1: DIQMTQSPSSLSASVGDRVTITCRASQGIRNDLGWYQQKPGKAPKRLIYVASSLQSGVPSRFSGSGSGTEFTLTISSLQPEDFATYYCLQHNSYPYTFGQGTKLEIKRTVAAPSVFIFPPSDEQLKSGTASVVCLLNNFYPREAKVQWKVDNALQSGNSQESVTEQDSKDSTYSLSSTLTLSKADYEKHKVYACEVTHQGLSSPVTKSFNRGEC
heavy 2: EVQLVESGGGLVQPGGSLRLSCAASGFTFSDYYMTWVRQAPGKGLEWVAFIRNQARGYTSDHNPSVKGRFTISRDNAKNSLYLQMNSLRAEDTAVYYCARDRPSYYVLDYWGQGTTVTVSSASTKGPSVFPLAPSSKSTSGGTAALGCLVKDYFPEPVTVSWNSGALTSGVHTFPAVLQSSGLYSLSSVVTVPSSSLGTQTYICNVNHKPSNTKVDKKVEPKSCRKTHTCPRCPAPEAAGAPSVFLFPPKPKDTLMISRTPEVTCVVVDVSHEDPEVKFNWYVDGVEVHNAKTKPREEQYNSTYRVVSVLTVLHQDWLNGKEYKCKVSNKALPAPIEKTISKAKGQPREPQVYTLPPSREEMTKNQVSLTCLVKGFYPSDIAVEWESNGQPENNYKTTPPVLDSDGSFFLYSRLTVDKSRWQQGNVFSCSVMHEALHNHYTQKSLSLSPG
light 2: B1 light 2
notes: Chains 1-2: B7-H4 arm; chains 3-4: CD3 arm; IgG1 EEE/RRR scaffold
T cell mediated tumor cell killing EC50, HCC1954-Luc [9]: 75 nM
T cell mediated tumor cell killing, MDA-MB-468 [9]: 45

Kd [3]: 62.4 nM
koff [3]: ~0.0339 s⁻¹
kon [3]: 543000 M⁻¹ s⁻¹
Kd [4]: 68.8 nM
koff [4]: ~0.0341 s⁻¹
kon [4]: 496000 M⁻¹ s⁻¹
EC50 [7]: 27 nM
EC50 [8]: 44.8 nM
B3: B7-H4xCD3 bispecific antibody 1156 (bispecific antibody, IgG2)
heavy 1: EVQLVESGGGLVQPGGSLRLSCAVSGGSFSGYYWNWVRQAPGKGLEWIGEINHSGSATYNPSLKSRVTISVDTAKNSLYLQMNSLRAEDTAVYYCARGLYNWNVDHWGQGTLVTVSSASTKGPSVFPLAPCSRSTSESTAALGCLVKDYFPEPVTVSWNSGALTSGVHTFPAVLQSSGLYSLSSVVTVPSSNFGTQTYTCNVDHKPSNTKVDKTVERKCEVECPECPAPPVAGPSVFLFPPKPKDTLMISRTPEVTCVVVAVSHEDPEVQFNWYVDGVEVHNAKTKPREEQFNSTFRVVSVLTVVHQDWLNGKEYKCKVSNKGLPSSIEKTISKTKGQPREPQVYTLPPSREEMTKNQVSLTCEVKGFYPSDIAVEWESNGQPENNYKTTPPMLDSDGSFFLYSKLTVDKSRWQQGNVFSCSVMHEALHNHYTQKSLSLSPGK
light 1: B2 light 1 with V50A, E70D, S93A, Y96R, Q100G, L104V
heavy 2: B1 heavy 2
light 2: B1 light 2
notes: as for B1

Kd [12]: 3.79 nM
koff [12]: 0.000635 s⁻¹
kon [12]: 168000 M⁻¹ s⁻¹
IC50 [13]: 4.8 nM
IC50 [14]: 1 nM
B4: B7-H4 antibody 0047 (antibody, human IgG1, kappa, V domains shown)
VH: QVQLQQWGAGLLKPSETLPLTCAVYGGSFSGYYWNWIRQPPGKGLEWIGEINHSGSATYNPSLKSRVTISVDTSKNHFSLKLSSVTAADTAVYFCARGLYNWNVDHWGQGTLVTVSS
VL: DIQMTQSPSSLSASVGDRVTITCRASQGIRNDLGWYQQKPGKAPKRLIYAASSLQSGVPSRFSGSGSGTEFTLTISSLQPEDFATYYCLQHNSYPRTFGGGTKVEIKR
notes: also called 7H7
